Experimental data reported in PMC13124150, “Interrogating the structure and function of the human voltage-gated proton channel (hHv1) with a fluorescent noncanonical amino acid” (eLife, 2026).

Biological target: the molecule itself
Assay: SEC; SEC-cleaned No TAG hHv1 injected at several concentrations on an ENrich SEC 650 column in Buffer-H2 (50 mM Tris, 150 mM NaCl, 12 mM Anz3-12, pH 8.0); compared with a run in denaturing buffer (50 mM Tris, pH 8.0, 150 mM NaCl, 0.2% SDS); Ex/Em = 280/350 nm

B1: hHv1-Cysless (His-EK-hHv1-C107A-C249A), human voltage-gated proton channel (natural protein, UniProt Q96D96 1-273, looked up)
chain: MATWDEKAVTRRAKVAPAERMSKFLRHFTVVGDDYHAWNINYKKWENEEEEEEEEQPPPTPVSGEEGRAAAPDVAPAPGPAPRAPLDFRGMLRKLFSSHRFQVIIIALVVLDALLVLAELILDLKIIQPDKNNYAAMVFHYMSITILVFFMMEIIFKLFVFRLEFFHHKFEILDAVVVVVSFILDIVLLFQEHQFEALGLLILLRLWRVARIINGIIISVKTRSERQLLRLKQMNVQLAAKIQHLEFSASEKEQEIERLNKLLRQHGLLGEVN
notes: human voltage-gated proton channel (hHv1), full-length, with C107A and C249A (Cysless); Construct name His-EK-hHv1 in pET15-b; 'EK' between the His tag and hHv1 is probably an enterokinase site (surmised); no cleavage step is described; also called No TAG; control; source: E. coli BL21-Gold(DE3), purified (Ni-NTA in Anzergent 3-12, FSEC)
stoichiometry N: 2
